Experimental data as given in the supplement of paper PMC12764529.
± gives the half width of the 95% confidence interval.

Key:
[1] = folding stability dG unfold from chymotrypsin proteolysis; higher = more stable
Outline: (§1)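 Mini-proteins designed to be under 80 residues and free of cysteine were carried in a PA-tagged cDNA display construct and digested with trypsin and with chymotrypsin. Each protease was applied at 11 threefold-diluted concentrations, alongside a no-protease condition, before sequencing. K50 came from Bayesian fitting of the sequencing counts, and unfolding free energy was obtained by comparing it with a sequence-predicted unfolded-state K50 and a shared folded-state K50, for each protease separately or for both together. Designs were retained only if their AlphaFold2 dimer inter-PAE exceeded 15.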

[2] = folding stability dG unfold from trypsin proteolysis; higher = more stable
Outline: as §1

[3] = folding stability dG unfold (combined trypsin and chymotrypsin); higher = more stable
Outline: as §1

| Sequence | folding stability dG unfold [1] | folding stability dG unfold [2] | folding stability dG unfold [3] |
| --- | --- | --- | --- |
| SAGGSMKVEVTVTETSTLGDGTRTYTVAVLIDGTPLTFTFPFTSEEEFREAVEEWAKERGVEITLTPSSAGG [r13_750_JUSTAS] | 4.54 ± 0.049 kcal/mol | 3.7 ± 0.084 kcal/mol | 4.25 ± 0.14 kcal/mol |
| SAGGSMPETVKVRVRNADGSLLTLEITRDADGELTVTLEVDGKTVELSLEELEKLPPGVEVVEVEPSAGGSA [r2_431_TrROS_Hall] | 2.44 ± 0.087 kcal/mol | 1.9 ± 0.087 kcal/mol | 2.26 ± 0.18 kcal/mol |
| SAGGSMPKGQEVKIEIEHRRHNGRRYWRVSVEVPNGKDIEIPFDDPEEMPPEMKKQIENLAKEIVKSAGGSA [r2_17_TrROS] | 1.11 ± 0.25 kcal/mol | 0.146 ± 0.11 kcal/mol | 0.874 ± 0.26 kcal/mol |
| SAGGSMQSVTSYDPNGVTYTTEFLPDEDVVTYTKTTDGTVTTTKVERLDEDGVPVPLSTSTTTLGGSAGGSA [r2_60_JUSTAS] | -0.217 ± 0.29 kcal/mol | 0.208 ± 0.085 kcal/mol | 0.107 ± 0.16 kcal/mol |
| SAGGSMRFKIEDINIGIIPHPPGWLLIPITVKVKFEEPDPDNGEPKTVEHEFPIMIMMPKDDLDDLSAGGSA [r2_184_TrROS] | 2.68 ± 0.045 kcal/mol | 2.01 ± 0.072 kcal/mol | 2.44 ± 0.14 kcal/mol |
| SAGGSMSESEVVEVTVGGKPVTITVHREDNRYSAEVTLPPGVRVVLPFGGPESPEKAVEEAVRALESAGGSA [r2_92_JUSTAS] | 0.508 ± 0.046 kcal/mol | 0.352 ± 0.036 kcal/mol | 0.425 ± 0.065 kcal/mol |
| SAGGSMSIPLKTEEDVKKAVEYIKQKLLEEGAPEGLKIDKVEVTKLPDGTYKITITFPNKTFELVGSAGGSA [r2_120_JUSTAS] | 2.64 ± 0.047 kcal/mol | 2.56 ± 0.052 kcal/mol | 2.64 ± 0.079 kcal/mol |
| SAGGSMSPALNKKLDVEEITADEEEAKKIAKESKKPVIVTLPDGTVLRFNTDGSVTEYPLPPPELLSAGGSA [r2_34_JUSTAS] | 1.12 ± 0.12 kcal/mol | 0.443 ± 0.07 kcal/mol | 0.958 ± 0.12 kcal/mol |
| SAGGSMSTSTLVRREIASVDPETGLRVVRVEVEEVDYGFDPKTGTVLGVSPVSPVSESVLLLPADAPPESAG [r5_903_JUSTAS] | -0.175 ± 0.22 kcal/mol | -0.652 ± 0.23 kcal/mol | -0.286 ± 0.23 kcal/mol |
| SAGGSMSVEVEVLAKVKLPNGEEVTFPVRVTYNPETGEVTVEIDLPKEVFERLKELYPDGIIAPEPSAGGSA [r2_409_TrMRF] | 3.5 ± 0.078 kcal/mol | 2.79 ± 0.11 kcal/mol | 3.27 ± 0.048 kcal/mol |
| SAGGSMTFKAEVTPLDTFPLFDANGKPVAEVKVYTATIEFPDGSRVEIRGVEVGDELYILEIRPLDSAGGSA [r2_158_TrMRF] | 2.32 ± 0.13 kcal/mol | 1.54 ± 0.084 kcal/mol | 2.16 ± 0.13 kcal/mol |
| SAGGSMTISYDPSTGTVTITDPTVPLNTPRSITITFPGGETFTATLTPLPDNSATATYTVVPTAGASAGGSA [r2_89_JUSTAS] | 1.09 ± 0.1 kcal/mol | 1.26 ± 0.036 kcal/mol | 1.23 ± 0.16 kcal/mol |
| SAGGSMTTTTVTVTDPAGNTTTYTFPSSVPLEEIVEAVSKALGRPVTVLSVTTDPSGTTTVTLAVPGSAGGS [r8_285_JUSTAS] | 5.131 ± 0.047 kcal/mol | 4.33 ± 0.3 kcal/mol | 5.17 ± 0.13 kcal/mol |
| SAGGSMTVETSISRLPDGTYTVTVTFTLKNPDGSPVGTITIPVTMSPEVLAKTPLETVVAEAVAAASAGGSA [r2_421_JUSTAS] | 3.48 ± 0.048 kcal/mol | 2.44 ± 0.056 kcal/mol | 3.09 ± 0.077 kcal/mol |
| SAGGSMVEVIVIDKDGKEHKILIPPELKPEEVAEKVKKFLEDEGYEVESIEIEELPEGFSKVIVNASAGGSA [r2_148_TrMRF] | 1.45 ± 0.18 kcal/mol | 2.05 ± 0.078 kcal/mol | 1.68 ± 0.21 kcal/mol |
| SAGGSMVKLKVTSVSREGNYLTVTAELGNLIVEIRFDEGTDRFEVKVSEKPLVLGEEEIEELAKASSAGGSA [r2_482_TrMRF] | 2.38 ± 0.043 kcal/mol | 1.52 ± 0.064 kcal/mol | 2.08 ± 0.072 kcal/mol |

| Sequence | folding stability dG unfold [1] | folding stability dG unfold [2] | folding stability dG unfold [3] |
| --- | --- | --- | --- |
| SAGGSMVVTVSTDSTSEPTTVITITIPPELGNLTDEEKKAIAEEIAKKYPNTKFTFTPTTITITRKSAGGSA [r2_256_JUSTAS] | 2.81 ± 0.054 kcal/mol | 1.77 ± 0.047 kcal/mol | 2.37 ± 0.23 kcal/mol |
| SAGGSMVVVVKLKDGKKIELSVEELKKLAEELGLEPEEEDKEERLERIAKALAEKLGLEVEKVEVLSAGGSA [r2_83_TrROS_Hall] | 2.74 ± 0.22 kcal/mol | 4.09 ± 0.29 kcal/mol | 3.33 ± 0.35 kcal/mol |
| SAGGSNFKPLEAEIYRNPDGKDVVQIMITFPDPNGKPFTVNIWIYPDGKIKISVYYNGKKEEIEIPSAGGSA [r2_182_TrROS] | 3.57 ± 0.12 kcal/mol | 1.95 ± 0.13 kcal/mol | 2.96 ± 0.18 kcal/mol |
| SAGGSPEEIANEVKEKILKELPPGVKVEVSVEVTPEGATVTVKVPEGKEYTVKVEGDKIVEIKLLKKSAGGS [r8_287_JUSTAS] | 1.92 ± 0.057 kcal/mol | 0.921 ± 0.081 kcal/mol | 1.51 ± 0.28 kcal/mol |
| SAGGSPERSAEELAEELAERIRELLREEAASFELPLHVHIVVPDPEGRRREFDVEVHVRVEVPEDARSAGGS [r16_550_TrMRF] | 1.14 ± 0.034 kcal/mol | 0.898 ± 0.025 kcal/mol | 1.05 ± 0.054 kcal/mol |
| SAGGSPETKTISFKYPGNGMRIMVQVERDPADGKKKITINMENNPYMAERAKKALEELGLPVEIHPSAGGSA [r2_30_TrROS] | 1.14 ± 0.12 kcal/mol | 1.38 ± 0.13 kcal/mol | 1.32 ± 0.12 kcal/mol |
| SAGGSPIISTEKSSSGVTTITFPDGTVVTEVTTPLPDGTVLTTTTVTPPNAPVSTTTTTDPVPPGLPSAGGS [r16_211_JUSTAS] | 0.702 ± 0.027 kcal/mol | 0.775 ± 0.062 kcal/mol | 0.767 ± 0.062 kcal/mol |
| SAGGSPLLVLHIRLRRPGEEREIVIPSDLIEDMPLEEIEEILRALPWIDEAEIELEEFPPLRPDELSAGGSA [r2_282_TrMRF] | 1.98 ± 0.11 kcal/mol | 1.21 ± 0.026 kcal/mol | 1.67 ± 0.089 kcal/mol |
| SAGGSPNFRIHIEGPEGKTLQYPVDPGFNKPDIQDWLQELGNIEIDQHPNDGWITIRIPKDALDQFSAGGSA [r2_164_TrROS] | 0.0882 ± 0.21 kcal/mol | 0.226 ± 0.12 kcal/mol | 0.161 ± 0.27 kcal/mol |
| SAGGSPNIKITSKEKEGSKLKYTIQTPDKTITIEYSEGKATFKFPDGSTKTLTGKGSLEKAIKEAVLSSAGG [r13_98_JUSTAS] | 1.99 ± 0.25 kcal/mol | 0.936 ± 0.11 kcal/mol | 1.59 ± 0.2 kcal/mol |
| SAGGSPPDKWVTLPFTMRYPDNGLEVEVNIVINPDDGKIQVEMEVYDNGKPKQEVPATIPADEIKLSAGGSA [r2_188_TrROS] | 0.594 ± 0.23 kcal/mol | 0.639 ± 0.035 kcal/mol | 0.699 ± 0.13 kcal/mol |
| SAGGSPPNITYELTFPDGTVYTDPLPGKSLEELKEYVKSLNFTNVEVTVYEESSEVSTYKVTIPPNESAGGS [r16_700_JUSTAS] | 0.57 ± 0.13 kcal/mol | 0.169 ± 0.079 kcal/mol | 0.437 ± 0.12 kcal/mol |
| SAGGSPSTVVPTLLTLEIVKKDEKGNETSETIPVLVEDSPEEARERLIEEIEKKYGAEVVKVTVKPESAGGS [r16_511_JUSTAS] | -1.22 ± 0.27 kcal/mol | -0.576 ± 0.07 kcal/mol | -0.608 ± 0.18 kcal/mol |
| SAGGSQRFRITELVVPEDDGNLFIRVRGPNGKSMFMPASDIEKARKNGKEIEFPFPNGQPFEVEIISAGGSA [r2_301_TrROS] | -0.461 ± 0.66 kcal/mol | -0.34 ± 0.44 kcal/mol | -0.411 ± 0.33 kcal/mol |
| SAGGSRTVLLYDPDNPRPYIVEYDPATGTLRIYDPETGELVAEFPIPDLKDIEAPVVPNGILLGAIVDSAGG [r13_720_TrMRF] | 1.998 ± 0.018 kcal/mol | 1.03 ± 0.023 kcal/mol | 1.68 ± 0.075 kcal/mol |
